This note sets out measurements from patent publication US20130122568.

Residue numbers refer to the chain shown, from its start. Bounds are passed on as bounds.

What all share (experiment): cleavage_in_vitro
One data set concerns BstXI-HF N65A. Particulars: NEB2, 55 C.
The test system of data set [1] is T1, BsmBI (Bacillus stearothermophilus).
T1 sequence: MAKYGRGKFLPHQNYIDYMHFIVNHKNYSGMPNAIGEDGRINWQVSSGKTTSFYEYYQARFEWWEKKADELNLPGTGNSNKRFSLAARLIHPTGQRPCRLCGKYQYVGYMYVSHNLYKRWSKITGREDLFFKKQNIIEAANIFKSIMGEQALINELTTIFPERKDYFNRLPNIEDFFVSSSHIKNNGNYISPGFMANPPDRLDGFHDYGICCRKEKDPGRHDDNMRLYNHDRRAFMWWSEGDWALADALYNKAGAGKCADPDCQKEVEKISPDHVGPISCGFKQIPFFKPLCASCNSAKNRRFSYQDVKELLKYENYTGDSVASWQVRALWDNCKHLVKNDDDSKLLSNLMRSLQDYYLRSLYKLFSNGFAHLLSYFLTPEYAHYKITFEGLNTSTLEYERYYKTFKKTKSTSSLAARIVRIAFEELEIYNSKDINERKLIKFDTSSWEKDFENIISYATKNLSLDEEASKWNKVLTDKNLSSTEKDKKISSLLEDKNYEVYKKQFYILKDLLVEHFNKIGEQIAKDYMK
The note with it: NEB3, 55 C.

Data set [2] concerns the target T2, ScaI-HF H193A/S201F (Streptomyces caespitosus) (UniProt O52691).
T2 sequence: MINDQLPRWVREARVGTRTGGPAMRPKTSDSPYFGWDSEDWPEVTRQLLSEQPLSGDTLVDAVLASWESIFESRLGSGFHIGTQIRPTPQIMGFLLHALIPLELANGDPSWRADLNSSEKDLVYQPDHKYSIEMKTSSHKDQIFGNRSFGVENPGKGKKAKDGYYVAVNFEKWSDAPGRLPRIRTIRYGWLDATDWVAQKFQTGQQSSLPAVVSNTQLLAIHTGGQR
The note with it: NEB2, 37 C.

Data set [3] concerns T3, BspQI (Bacillus sphaericus).
T3 sequence: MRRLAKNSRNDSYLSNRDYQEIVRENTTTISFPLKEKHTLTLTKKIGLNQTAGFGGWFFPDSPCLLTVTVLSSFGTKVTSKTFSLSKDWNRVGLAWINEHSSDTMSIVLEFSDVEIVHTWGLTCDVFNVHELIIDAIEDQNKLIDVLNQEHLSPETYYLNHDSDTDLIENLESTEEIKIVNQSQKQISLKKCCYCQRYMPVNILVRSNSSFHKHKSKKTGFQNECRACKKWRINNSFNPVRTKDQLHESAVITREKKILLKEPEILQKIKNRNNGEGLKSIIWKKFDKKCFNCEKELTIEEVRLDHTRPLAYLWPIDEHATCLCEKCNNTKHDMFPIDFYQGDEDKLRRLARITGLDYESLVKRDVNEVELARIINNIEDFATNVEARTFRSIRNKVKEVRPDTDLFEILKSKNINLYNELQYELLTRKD
The note with it: NEB3, 50 C.

The test system of data set [4] is T4, BsmBI-HF N185Y/R232A (Bacillus stearothermophilus).
T4 sequence: T1 sequence with N185Y, R232A
Particulars: NEB2, 55 C.

For data set [5], the target named is T5, HindIII (Haemophilus influenzae Rd) (UniProt P43870).
T5 sequence: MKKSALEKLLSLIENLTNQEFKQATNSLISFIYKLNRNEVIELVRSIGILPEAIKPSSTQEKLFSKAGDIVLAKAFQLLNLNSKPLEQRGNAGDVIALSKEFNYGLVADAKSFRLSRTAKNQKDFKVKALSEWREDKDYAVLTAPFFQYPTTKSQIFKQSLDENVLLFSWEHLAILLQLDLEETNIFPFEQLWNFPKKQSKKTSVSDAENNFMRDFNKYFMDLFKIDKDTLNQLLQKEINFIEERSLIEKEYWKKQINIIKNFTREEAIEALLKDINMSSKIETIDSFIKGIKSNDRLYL
The note with it: NEB2, 37 C.

Data set [6] addresses T6, BamHI (Bacillus amyloliquefaciens) (UniProt P23940).
T6 sequence: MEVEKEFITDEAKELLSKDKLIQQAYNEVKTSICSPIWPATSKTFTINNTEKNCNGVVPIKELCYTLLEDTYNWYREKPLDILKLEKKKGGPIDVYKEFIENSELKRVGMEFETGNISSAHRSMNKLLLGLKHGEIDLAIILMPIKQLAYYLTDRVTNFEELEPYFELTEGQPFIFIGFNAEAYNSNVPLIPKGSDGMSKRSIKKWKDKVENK
Particulars: NEB3, 37 C.

In the case of lambda phage DNA, the activity (fidelity index) was > 250 in the data set on BstXI-HF N65A; 120 in data set [1]; 1000 in data set [2]; 32 in data set [3]; > 500 in data set [4]; 250 in data set [5]. In addition, the activity (fidelity index) in data set [6] worked out at 32.
